The values that follow are results of earlier work, collected in PMC5487681, “Identification of Antifungal H^+-ATPase Inhibitors with Effect on Plasma Membrane Potential” (Antimicrobial Agents and Chemotherapy, 2017).

In this data set the test system is C. albicans cells. Also noted: method as in PMID 27139463.

B1: lactoferrin: immunoprotein that inhibits Pma1 (protein, UniProt P02788 20-710, looked up)
Lactotransferrin: GRRRSVQWCAVSQPEATKCFQWQRNMRKVRGPPVSCIKRDSPIQCIQAIAENRADAVTLDGGFIYEAGLAPYKLRPVAAEVYGTERQPRTHYYAVAVVKKGGSFQLNELQGLKSCHTGLRRTAGWNVPIGTLRPFLNWTGPPEPIEAAVARFFSASCVPGADKGQFPNLCRLCAGTGENKCAFSSQEPYFSYSGAFKCLRDGAGDVAFIRESTVFEDLSDEAERDEYELLCPDNTRKPVDKFKDCHLARVPSHAVVARSVNGKEDAIWNLLRQAQEKFGKDKSPKFQLFGSPSGQKDLLFKDSAIGFSRVPPRIDSGLYLGSGYFTAIQNLRKSEEEVAARRARVVWCAVGEQELRKCNQWSGLSEGSVTCSSASTTEDCIALVLKGEADAMSLDGGYVYTAGKCGLVPVLAENYKSQQSSDPDPNCVDRPVEGYLAVAVVRRSDTSLTWNSVKGKKSCHTAVDRTAGWNIPMGLLFNQTGSCKFDEYFSQSCAPGSDPRSNLCALCIGDEQGENKCVPNSNERYYGYTGAFRCLAENAGDVAFVKDVTVLQNTDGNNNEAWAKDLKLADFALLCLDGKRKPVTEARSCHLAMAPNHAVVSRMDKVERLKQVLLHQQAKFGRNGSDCPDKFCLFQSETKNLLFNDNTECLARLHGKTTYEKYLGPQYVAGITNLKKCSTSPLLEACEFLRK
As to B1, the “Increase in iATP levels, C. albicans” value is over 600%.
